According to publication PMC10897365, “Molecular mechanism of allosteric activation of the CRISPR ribonuclease Csm6 by cyclic tetra-adenylate” (The EMBO Journal, 2023):
Where a chain is given by its changes, count along the chain named. Numbers in names are those of the source.

Columns and labels:
TtCsm6 = molecular target: T1, TtCsm6 (Thermus thermophilus, UniProt Q53W17); experiment: crystal structure […] Å (co-crystallised with cA4); type: binding; conditions: post-cleavage state; two A2>P across the CARF dimer interface; pH 8.5, Mg2+ in crystal
T1 construct: gene csm6; synthesized gene, N-terminal 6xHis tag removed with PreScission protease; expressed in E. coli Rosetta (DE3); homodimer; CARF-HTH-HEPN
T1 sequence (Q53W17 1-464): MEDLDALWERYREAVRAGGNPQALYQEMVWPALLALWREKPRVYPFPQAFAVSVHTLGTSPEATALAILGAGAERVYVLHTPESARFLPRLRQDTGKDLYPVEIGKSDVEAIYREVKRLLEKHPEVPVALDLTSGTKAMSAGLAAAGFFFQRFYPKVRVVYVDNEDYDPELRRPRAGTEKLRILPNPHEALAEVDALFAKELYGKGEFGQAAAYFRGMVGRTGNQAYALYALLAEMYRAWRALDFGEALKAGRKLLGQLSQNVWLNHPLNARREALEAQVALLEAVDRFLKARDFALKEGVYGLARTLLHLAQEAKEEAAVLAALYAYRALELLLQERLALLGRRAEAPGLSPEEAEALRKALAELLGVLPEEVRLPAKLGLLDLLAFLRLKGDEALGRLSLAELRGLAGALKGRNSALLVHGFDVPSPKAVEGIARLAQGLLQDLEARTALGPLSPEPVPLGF

[1] = molecular target: the molecule itself; experiment: crystal structure; TtCsm6 (12 mg/mL) pre-incubated with cA4 1:1.2 for 3 h at room temperature; hanging drop, 25 °C; post-cleavage state with two A2>P bound; homodimer
[2] = molecular target: the molecule itself; experiment: crystal structure; TtCsm6 Y161A (10 mg/ml) pre-incubated with cA4 1:1.2 at 4 °C for 30 min; hanging drop, 25 °C; pre-cleavage state with cA4 bound; homodimer
[3] = molecular target: the molecule itself; experiment: crystal structure; TtCsm6 K137A (13 mg/mL) alone; hanging drop, 25 °C; apo state, no metal ion in the HEPN domain; homodimer

Which “crystal structure 1.81 Å (co-crystallised with cA4)” value (TtCsm6) does the source give for `Nc1ncnc2c1ncn2[C@@H]1O[C@H](CO)[C@@H](OP(=O)(O)OC[C@H]2O[C@@H](n3cnc4c(N)ncnc43)[C@@H]3OP(=O)(O)O[C@@H]32)[C@H]1O` [A2 > P] here?
Its value is “cA4 in the CARF domain was cleaved into two A2 > P molecules”.

B1: Thermus thermophilus (Tt) Csm6, wild type (enzyme)
chain: T1 sequence (Q53W17 1-464)
notes: Csm6 of Thermus thermophilus, GenBank ID 81626039; synthesized cDNA in a modified pET vector; Crystallised after pre-incubation with cA4, which was cleaved to two A2>P in the crystal (post-cleavage state); Homodimer in the crystal; also called WT; source: E. coli Rosetta (DE3), purified (Ni-NTA, 15Q, Superdex 200); not shown: His6, N-terminal, cleaved
Does B1 bind [1]?
Result: binds

B2: TtCsm6 Y161A mutant (enzyme, Thermus thermophilus)
chain: T1 sequence (Q53W17 1-464) with Y161A
notes: Csm6 of Thermus thermophilus, GenBank ID 81626039, with Y161A; Crystallised with uncleaved cA4 (pre-cleavage state); Homodimer in the crystal; source: E. coli Rosetta (DE3), purified (Ni-NTA, 15Q, Superdex 200); not shown: His6, N-terminal, cleaved
Does B2 bind [2]?
Result: binds

B3: TtCsm6 K137A mutant (enzyme, Thermus thermophilus)
chain: T1 sequence (Q53W17 1-464) with K137A
notes: Csm6 of Thermus thermophilus, GenBank ID 81626039, with K137A; Homodimer in the crystal; also called apo-TtCsm6 (Ni-free structure); source: E. coli Rosetta (DE3), purified (Ni-NTA, 15Q, Superdex 200); not shown: His6, N-terminal, cleaved
Does B3 bind [3]?
Result: binds
